Experimental findings from publication PMC6853987, “ClpP protease activation results from the reorganization of the electrostatic interaction networks at the entrance pores” (Communications Biology, 2019) are described below.

The stoichiometry N is the number of molecules, sites or subunits per partner or assembly.

Data set [1] concerns the molecule itself. Kind of data set: crystal structure; EcClpP 10 mg/mL in 10 mM HEPES pH 7.5, 200 mM NaCl with 5 mM ACP1-06; well 51-63% MPD, 0.1 M sodium acetate pH 5.0, room temperature; self-association (tetradecamer).
Data set [2] concerns the molecule itself. Kind of data set: crystal structure; apo-NmClpP 5 mg/mL in 25 mM TrisHCl pH 7.5, 100 mM KCl; well 0.2 M potassium thiocyanate, 40% MPD, room temperature; self-association (tetradecamer).

B1: Escherichia coli ClpP (EcClpP), wild type (enzyme)
chain: not shown
notes: ClpP protease proteolytic subunit, E. coli; Crystallised with the small molecule ACP1-06; An unexplained density extends from S111 in the structure (possible covalent modification, not identified); also called E. coli ClpP; caseinolytic protease P; copies: 14
For the protein B1, the “stoichiometry N” value in data set [1] is 14.

B2: Neisseria meningitidis ClpP (NmClpP), wild type (enzyme)
chain: not shown
notes: ClpP, N. meningitidis MC58; expressed full length with N-terminal His6 tag and TEV site; also called apo-NmClpP; WT NmClpP; not shown: His6, N-terminal, cleaved; copies: 14
As for B2, the “stoichiometry N” value in data set [2] is 14.
